Measured values as given in a protein production outcome set (Wang et al. 2014).

Assay: label from the status in PepcDB records

For “MRRSSSKKKSGQSTESVTTDLFRSASSKASNKEMDRIDHLFNQYANKSSSLIDPEGIEELCSNLEVSHTDIRILMLAWKMKAEKQGYFTHISFPDMGDYNPELAWPLILDNFVEWIQEKQA”, the protein production was “failed”.

For “ETPVGLNLELTDQDGRPMFPDGSAVPYERTRKLVARLAAPLRATSLRVIIVGHTAATVVQAGDDDPLSLSVNRANAVREVLKQEGLPSSQVLSLVGKGDGEPLFPDAPALAANRRVTITLMRENPPLPPDLQR”, the protein production was “failed”.

In the case of “MEVAPSFSSVLKDCAVIEGQDFVLQCSVRGTPVPRITWLLNGQPIQYARSTCEAGVAELHIQDALPEDHGTYTCLAENALGQVSCSAWVTVH”, the protein production is reported as “not failed”.

In the case of “MPQPKKDKPDTPLRSDAQRNRERILAVATEELTHCANAPLSAIAKKAGVGQGTFYRNFPNREALVLEIYRYGMQQVAEAAPEMLATGEPDLALRQWMDRLAEFAMTKAGLADAIRLVTSAPGAPEKPRPTPLEDAAELLLRANHEAGTIRPGVTGDDFFLVLGGLWLIDPGENWQPRVTRFLDLVMDGLRAGAPGR”, the protein production is reported as “not failed”.

With “MSYFYKHCLKFSLVGLLGLLSVQLDARSFVDGDLDIQKFSYEDSLLKKGDPNGVHKVQVRDYKGKMQEAEIHSEIRIALKPGVKKEVKKGKIYSAQINDGMCYAFRMLQTGDNTTGLDSKEFPKQSREKKGRVITLIGKGEVPYLILETDCQVGDIAKISLVGNFDGTGFLTEYKFKDAKPIY” the protein production was “failed”.

For “SVDLAHIRQVRAEADCLFNNDEVEAAIGRVAEAINRDLGETNPVVFCVMNGGLIFSGKLLPLLDFPLELSYLHATRYRNETSGGELFWKAKPEISFIDRDVLIIDDILDEGHTLSAIIDFCKHAGARAVHTAVLVDKEHERKARPDLKASFTGLYCADRYVFGYGMDYKGYWRNA”, the protein production was “failed”.

With “MTEKTIRVLVAGLGNMGRSHALAYHNNPGFEIVGLVNRSTPELAAELQGYTIHPDFMTALAELKPDLCSINTYSDSHADYAVAAFEAGCDVFVEKPLATTVADAERVVAAAGKAGRKLVIGYILRHHPSWMKLIGEARKLGPPYVFRMNLNQQSSGPTWATHKSLMRTTSPIVDCGVHYVDVMCQITDARAVEVRGMGLRMSDEIAADMYNYGHLQVLFEDGSVGWYEAGWGPMISETAFFVKDVMSPKGAVSIVMDPNAKSDDIDTHTKTSVIRLHTAETGPDGKFIRPDQDMTMEGEPGHQALCDLEQAFMLRAIREDLDLDRHMADAVASLRICLAADESVRTGQPVRL” the protein production was “failed”.

For “MAKKRITLPQNFDELITAGDVEALKAVYDKCELTAHNGRYSLNTALHYGGVPDELVIWLVEQGLDVNTLDYYGRTPLYKHATLGRDTVKLLYELGGDIQKPDTYGSTPLHTAAGFFRPKIVSFLIEKDADVNAKNDMGRTPLAEALATCRNSNVVQAAEIAEMLIKAGAEVVPEMAERVEIIGKDFEFHRENFNKDSLAETEAGLEKLYALFDVKPAPKRKIHDGVSPIIVKTGSWKEQYDELWEMLIPSSGAAKTVQGEVIRITGRVQDELYRNGGVNWDKDYRNMLNSLPNHFASGTPLSEEELKETKELISNIRANGEDEEVITERLRELSVLWVLLNPTPILLGKTNYNR”, the protein production was “failed”.

For “VLWISSSPVLQRFDKPLLQYISKDVNVAQWEYRHHRDEGSSIDEAVDLLAEFMGQCPYPVNLAGHAAGGAIALSFARRYPKKVRSLSLLAVASQPANTWHAHYYLQRQLFTISREQILANTVRNLFGEQPSHTTKKLVAVLDRDLEQSPLLHSLFKLVHLPEGGVNMPLMICGSKNDPIVSSTTLQDWSNCLKPEDHLWECPKGHHFFHYFYPQTVGDQLLNFWQ”, the protein production was “failed”.

With “SLENVLASHSKMQGALEKVQIELGRRDSEIAGLKKERDLNQQRVQKLEAEVDQWQARMLVMEDQHNSEIESLQKALGVAREDNRKLAMSLEQALQTNNHLQTKLDHIQEQLESKELERQNLETFKDRMTEESKVEAELHAERIEALRKQFQTERETTKKVAQREVAELKKALDEANFRSVEVSRTNRELRQKLAELEKILESNKEKIKNQKTQIKLHLSAKANNAQNIERMKVVWETSSHFLDTL” the protein production was “not failed”.

With “MSGLVTGREIVQTARDENVPFMGASIAYYAIASIVPLLALLLAALSTFGGTVTLLELLRTVLSENGQVILTELLENTRGHGATGTLSLVLVVWSGSKVFRSLSVAFTEVYGEVTDISLPAQLVRSAVVMGVLLGAVVFLSATSVALTYVKFQVPYPTLVGNVAAFAALGVAFVPIYYVLPPVKTSLTHVAPGALFAAAGWITIQVGFFYYAGTAGRYAAYGYLGALLLFVTALYLAAIVLLLGVVVNATLDW” the protein production was “failed”.

In the case of “MGKVSFGFLGLMLVVVVIGVVECRRFEKETLGGGGGGGLGGGFGGGKGFGGGIGAGGGFGGGAGGGAGGGLGGGAGGGGGIGGGAGGGAGGGLGGGAGGGLGGGHGGGIGGGAGGGAGGGLGGGHGGGIGGGAGGGSGGGLGGGIGGGAGGGAGGGGGLGGGHGGGIGGGAGGGAGGGLGGGHGGGIGGGAGGGSGGGLGGGIGGGAGGGAGGGGGAGGGGGLGGGHGGGFGGGAGGGLGGGAGGGTGGGFGGGAGGGAGGGAGGGFGGGAGGGAGGGFGGGAGGGAGGGAGGGFGGGAGGGHGGGVGGGFGGGSGGGFGGGAGGGAGGGAGGGFGGGGGAGGGFGGGF”, the protein production is reported as “failed”.

For “MDTIRSIFIIWKDDRMSFLNNSIIYHIAIILYACSISLYFIDYFQSNRKANRFAFWLLSIVWVLHSIFMLLRATDSETNPLLTLLSGIYFYVWLLITMSLVINRFMRIDFLVFFTNVVAFGVSAFSIFTPLGKMSPVLAEQLVSELVYVHVGMAIISYATFTVSFIFSIMYLLQYRLLKKKKWNARLRRLGNLPKLESMSYGLNLFSVPFFLLAILLGCIWGYTKLDNFHWYDTKVIGSFVVLFVYCAGLYLRAADVLQGKKIVQWNIGAFLVMLINIFLLSSLSNFHFWYL”, the protein production was “failed”.

For “MKHLTVYFLLALQGVLFSFSLSAATPQNAIAYHDGNVRFSVLTDGVIRMEWSPSGSFTDDPSFVAIHRNLPVPKYTVQNKNATVVISTARMKLKYKKGQGPFTKDNLTITSAKGMFPFQWTPGTIQKGNLKGTDRTLDGFEGDHNIYSHQDMKLEDGLLSTDGWTLIDDSKNFLFDNSEWAWVKEREHKDGQDWYFMAYGHDYKAALKDFTVFAGKVPLPPRYAFGYWWSRYWSYSDKEMRQLVDNFHTYNIPLDVLVVDMDWHYTDPGFGGWTGWTWNRRLFPDPAKFLGYLKSNDLKITLNLHPADGVAPYEEKYPEMAQWMGVDTAKQERIPWVVSDKRFINGMFNKVLRPMEKQGVDFWWLDWQQWMYDKKVDSLSNTWWINYVFFSDMERNRDTRPMLYHRWGGLGNHRYQIGFSGDAVISWKSLEFQPYFTNCASNVLYGYWSHDIGGHMFKGGDKEILDPELFTRWMQYGALTPVMRTHSTKNSVLNKELWNFKGDYFEALRNSILFRYQLAPYIYTMARETYDNGISICRPMYYDYPEAKEAYDFKSEYMFGDQILVAPITTPMQNGLSTVKVWLPEGNDWFEWTTGTLLKGGQIIERSFTLTEYPVYVKAGSVLPLYNRVKNLNSNSEEIIVNIFPGENGSFTFYEDNGNDKYYANEYARTRMYTERKENHLTVTVGPRQGKYRNMPTDRQFKIKVLGSAIPETITINGNRAEYEYIGDELALLITIPQTACDQEKTIEIQYSTSIPELNDGIVSQFKRFSKAITALKYRDAGIVLTPTMGATEATSIALTYSPERFNELIETFKRNYSQMPEMLKEQKLNEANSQWFMKAIGWKK”, the protein production was “failed”.

With “MQNAESWFKKYWHLSVLVIAALISVKLRILNPWNSVFTWTVRLGGNDPWYYYRLIENTIHNFPHRIWFDPFTYYPYGSYTHFGPFLVYLGSIAGIIFSATSGESLRAVLAFIPAIGGVLAILPVYLLTREVFDKRAAVIAAFLIAIVPGQFLQRSILGFNDHHIWEAFWQVSALGTFLLAYNRWKGHDLSHNLTARQMAYPVIAGITIGLYVLSWGAGFIIAPIILAFMFFAFVLAGFVNADRKNLSLVAVVTFAVSALIYLPFAFNYPGFSTIFYSPFQLLVLLGSAVIAAAFYQIEKWNDVGFFERVGLGRKGMPLAVIVLTALIMGLFFVISPDFARNLLSVVRVVQPKGGALTIAEVYPFFFTHNGEFTLTNAVLHFGALFFFGMAGILYSAYRFLKRRSFPEMALLIWAIAMFIALWGQNRFAYYFAAVSAVYSALALSVVFDKLHLYRALENAIGARNKLSYFRVAFALLIALAAIYPTYILADAQSSYAGGPNKQWYDALTWMRENTPDGEKYDEYYLQLYPTPQSNKEPFSYPFETYGVISWWDYGHWIEAVAHRMPIANPFQAGIGNKYNNVPGASSFFTAENESYAEFVAEKLNVKYVVSDIEMETGKYYAMAVWAEGDLPLAEKYYGGYFYYSPTGTFGYANSQWDIPLNSIIIPLRIPSELYYSTMEAKLHLFDGSGLSHYRMIYESDYPAEWKSYSSQVNLNNESQVLQTALYEAVMRARYGVSPTMGTQEVLYKYAYTQLYEKKMGIPVKIAPSGYVKIFERVKGAVVTGKVSANVTEVSVNATIKTNQNRTFEYWQTVEVKNGTYTVVLPYSHNSDYPVKPITPYHIKAGNVVKEITIYESQVQNGEIIQLDL” the protein production was “failed”.

In the case of “MHTTSGRWGYGLFLALLTALLWGILPIKLKQVLQVVDPITVTWYRLLVSGGLLFAWLAAQRRLPSMRKLAPRGKGLVLVAVLGLMGNYVLYLIGLKLLSPGTAQLVVQIGPVLLLVASVFVFRERFSVGQGMGLLVLLAGFGLFFNQRLEELLTSLGTYTTGVLTILLATSIWVFYALSQKQLLTVWHSQQVMMVIYLSCAALLTPWVHPLEALQLTPVQGWLLLACCLNTLVAYGAFAEALAHWEASRVSATLALTPLVTFVAVALAAWVWPEYVHAEDINALGYVGAVTVVFGSALVALGPSLVTSWRARRERGQRAYSSEG”, the protein production is reported as “failed”.

For “MTHVQTMLETYPKDLGDIDRAKLIECIKACFECAQTCTACADACLSEDMVAELTKCIRTNLDCADICVATGNMLSRHTGYDANVTRAVLEACRTVCKACADECEQHASMHEHCRACAEACRRCEKACADLLGSLG”, the protein production was “failed”.

In the case of “MDPTVSLQLSVDRSSPVPLYFQLSQQLEAAIEHGTLTPGSLLGNEIELAARLGLSRPTVRQAIQSLVDKGLLVRRRGVGTQVVHSQVKRPLELSSLYDDLEAAGQRPATQVLLNTLVPASAEVAAALGVAEGSDVHQVERLRLAHGEPMAYLCNYLPTGLLGLDSEQLEATGLYRLMRAAGITLHSARQSVGARAATAVEGERLGEPEGAPLLTMQRTTFDDTGRAVEFGTHTYRASRYSFEFQLLVRP”, the protein production is reported as “failed”.

For “MHSVHPTPKFSIITVTYNAEKVLEDTIQSVISQTYHHVEYIIVDGASKDGTLSIIDRYRPRITTVVSEPDKGLYDAMNKAISLASGDYLCFLNAGDCFHEDDTLQQMVHSIHGSVLPDVIYGETAIVDKDRHFLHMRRLSAPEKLDWKSFKQGMLVCHQAFFARHTLVEPYDLSYRYSADFDWCIRIMKKAYTLHNTHLTIIDYLDEGMTTQNRKASLKERFRIMAKHYGWISTAAHHAWFVLRLIIKPGQLEHHHHHH”, the protein production was “not failed”.

In the case of “DEGYWDCSVCTFRNSAEAFKCMMCDVRKGTSTRKPRPVSQ”, the protein production is reported as “not failed”.

For “MPPLGRPCHLAAMDSTDGPLDLIAERAEAAWSRGDRHRAMTLARLGLGQDDGHPRLLAVLGAFEQAEGRSAAAAGLFRRAMARCGDDPLMLHNLGVALRGAGLIDAAAAAWEGVLRGCPQRFATLFNLARLRDDQGRGEEALALYRRACLADPAASDAAYNLGNLLARRGALAQAAEVLGKAASVTPHDARIQTNLGIVLRRLGDAAGALACQRRAVALDPDLADAQWNLANLLLALDDYDEGFARYEWRKRRAPWRLVDPPLAEWRGEDLAGRRLLVGLEQGAGDMIQAARFLPVLAGRGARVIVEAPDALAGLLATVDGVESVVAPGAWAAARATCHIRAFSLPYRLGLRFADLAATAGPYLRVPPRTPTPPALPPGGQGPCVGLCWSGNPDFTENAVRAAPLAAFAPLTAVEGLTFFSLQKGPAVAELAASGLPVIDLDPWLVDYAATAAAMARLDMVVTTDTSVAHLAGALGRPCLLLLAAHCDWRWGIGRETSPWYPSLRLLRQERLGDWRAPVARAAALLAGLRRGTDTRGPEST”, the protein production was “failed”.
